Reference: a protein production outcome set (Wang et al. 2014)

Assay: label from the status in PepcDB records

Sequence | protein production
MSFSDHFSAVAASYAKARPRYPQRWFRYLARIVPDRQRVWDCATGNGQAAIALAEYFSEVIGSDASAAQVRQARSHPRVQYLVFPAEATPLAPASLDLITVAQAAHWFDLPQFYIEAQRLLRPGGVIALWGYGLGSLNPAIDHVFNHFYRDWLDPYWPPERQWVEQAYEGLSFPFEPLPTPTFSMQCDWTLFDLLAYLRTWSGVQQFQRQRGFDPVWAIAPELQRVWGDPQRYRRITWPLFAKVGRWQPLEHHHHHH | not failed
MSFSFLFILTAGMVAAFNPCGIALLPSYISYLIGGETKDHSFRYAIFKGLGLGGAMTTGFLTIFVLAGLLIGGLGSALTGIFPILSLVMGILIALLGLGMLFGKHLPIKIGSFQVKPGKWSIYFYGIAYAVTSLGCTLPAFMLVVSASLNDNSVTAVIIKFIIYSLGMGIVVTAITMVSLISRQLVQKFLHNYMGSIQKIAAVVIFLSGLYMAYYWYFGSGGICTF | failed
MSFVAYEELIKEGDTAILSLGHGAMVAVRVQRGAQTQTRHGVLRHSVDLIGRPFGSKVTCGRGGWVYVLHPTPELWTLNLPHRTQILYSTDIALITMMLELRPGSVVCESGTGSGSVSHAIIRTIAPTGHLHTVEFHQQRAEKAREEFQEHRVGRWVTVRTQDVCRSGFGVSHVADAVFLDIPSPWEAVGHAWDALKVEGGRFCSFSPCIEQVQRTCQALAARGFSELSTLEVLPQVYNVRTVSLPPPDLGTGTDGPAGSDTSPFRSGTPMKEAVGHTGYLTFATKTPG | not failed
MSFWRPRLGLLDASVLSFAVLPTDLDFNRHMTNARYLSLMDLGRLDLILRSGMWRLVLRQSLQPVIGGALVRFRHALRPFQPFRLTTRVLAWDARWLFIEHRVETLDGKPACTAVVRAAFVASTGMLPTADLLTRLGYGGAAPDVPAWIAPWLQADLACQPASPPLENPL | failed
MSGDMEATGWGYTHISVDSFCHKWTISNFSFCMDGIMETITSPKFSLKASDKVEWGLKVHPNGIDEESKNYLSVYLALLHCQKSPVWAKYEFWIINSQGEKYQSRKSTKVVSFHKNKYRGFKKFILRDFLFSNPHRLLPEDQLTLCCQVSIMGAFFKTPGQSITPAVPDPRHMMADDLGELWENSLCTDCCLLVAGQEFRAHKAILAARSPVFRAMFEHQMEERLTNRVDINGLDPKVFKEMMGFIYTGKAPHLHIHSMACDLLAAADRYGLEGLKVMCEDALCRNLSVENAAHTLILADLHNIEQLKTQALDFIALHASEVSENSEWKSMMESHPHLVAETFHSLASAQCFLEPSIKHLK | failed
MSGFHYPGVPVTALLYSLWPLFALIVGGYALRRWDFPGEAFWPAAERLNYFILFPALLFSNLATAPLDDPGLARQALAVLLGLGVAWLALLLCKRWRGWDAGRFGAIAQGVLRFNTYLGLAAVGSLYGKPGLTLAALMLALMVPTVNVMSVWALTAERGISLRALLLPILKNPLILACLAGALVNLAGVGLPGGSDRLLNLLAVASLPLGLLCVGAALKPQELGGEVAALGWNCAARLLAMPLLAFAIARGLGLPSMESAVLVLFFALPTAPTAYVLTRQLGGDGHLMAGIITLQTLLSGATLVGVLLVLQGSP | failed
MSGFSPELIDYLEGKISFEEFERRREERKTREKKSLQEKGKLSAEENPDDSEVPSSSGINSTKSQDKDVNEGETSDGVRKSVHKVFASMLGENEDDEEEEEEEEEEEEEEETPEQPTAGDVFVLEMVLNRETKKMMKEKRPRSKLPRALRGLMGEANIRFARGEREEAILMCMEIIRQAPLAYEPFSTLAMIYEDQGDMEKSLQFELIAAHLNPSDTEEWVRLAEMSLEQDNIKQAIFCYTKALKYEPTNVRYLWERSSLYEQMGDHKMAMDGYRRILNLLSPSDGERFMQLARDMAKSYYEANDVTSAINIIDEAFSKHQGLVSMEDVNIAAELYISNKQYDKALEIITDFSGIVLEKKTSEEGTSEENKAPENVTCTIPDGVPIDITVKLMVCLVHLNILEPLNPLLTTLVEQNPEDMGDLYLDVAEAFLDVGEYNSALPLLSALVCSERYNLAVVWLRHAECLKALGYMERAAESYGKVVDLAPLHLDARISLSTLQQQLGQPEKALEALEPMYDPDTLAQDANAAQQELKLLLHRSTLLFSQGKMYGYVDTLLTMLAMLLKVAMNRAQVCLISSSKSGERHLYLIKVSRDKISDSNDQESANCDAKAIFAVLTSVLTKDDWWNLLLKAIYSLCDLSRFQEAELLVDSSLEYYSFYDDRQKRKELEYFGLSAAILDKNFRKAYNYIRIMVMENVNKPQLWNIFNQVTMHSQDVRHHRFCLRLMLKNPENHALCVLNGHNAFVSGSFKHALGQYVQAFRTHPDEPLYSFCIGLTFIHMASQKYVLRRHALIVQGFSFLNRYLSLRGPCQESFYNLGRGLHQLGLIHLAIHYYQKALELPPLVVEGIELDQLDLRRDIAYNLSLIYQSSGNTGMAQTLLYTYCSI | failed
MSGGQQERHVLILNTVGGRRAIALEAAAYSLGRDESNAIVIDFETVSRQHAILLRVPVPGTTSYRYRLVDGNANGKPSTNGTFVNGKRISSHELQHGDVILFGRKAKASYLLLSMADTEFSQYLQSIAFQSIKSDLRGAKETLVGMELSGELRRTPNRELVAAGATQLHPELEPAKDTLSSESDSEPKGNNKETLHEKESQGSKTNLVALGAIALVVVAIIAGAVWRAGFSANPPQGSPPATPTRN | failed
MSGGRAQKPRPAPLRLAKPRPSSVGPAPRGSPGARRPAMSARHAPLLAGRVRSRAPRRFPDRGGGRRRQSSPVRAMSSPAVARASPGGNREASGGPRSRNGPWEVGGGGERLERAGAESGRWELLLRRGELLALGGHLKGALEAFAAALRRGAPARPERLGSLVDCLVFSYRLRHGLRWSAAPAAGAAGLLSCLSCRGFLSEPVTVPCGHSYCRRCLRRELRARCRLCRDRLPPAAAASEGTPRPPPLAAAIADFRTSVVLNHLAEKWFPGQRERARAAGRLGELLHEGRYREALAAACDALRAEPSDLTLKIYRAESYAGLQEFKAALEDLNAVLFQLPNWPEVYFRKGKVLQDAGFLGDALQLFLQCLALDEDFAPAKLQVEKILCDLLSPENVREGLKESSWSSLPCIKSKPLGFPSVMEQPHSPAELGLKQPEERVEDAPEPVKGSLSRAQSAQAISAAAVPAREDGLKRVCSEPLLSAQGKGVLLKRKLSLLEQDVLINEDGRSKLKKQSESPSEDCMFSIAYGDIPEELIDVSDFECSLCMRLFFEPVTTPCGHSFCKNCLERCLDHAPYCPLCKESLKEYLADRRYCVTQLLEELIVKYLPDELSERKKIYDEETAELSHLTKNVPIFVCTMAYPTVPCPLHVFEPRYRLMIRRSIQTGTKQFGMCVSDTQNSFADYGCMLQIRNVHFLPDGRSVVDTVGGKRFRVLKRGMKDGYCTADIEYLEDVKIENGDEIRSLRELHDSVYSQACSWFQNLRDRFRSQILQHFGSMPEREENLQATPNGPAWCWWLLAVLPVDPRYQLSVLSMKSLEERLTKIQHILTYFSRDQSK | failed
MSGIEAKNLWHRLNNLALVRFLLLVAAGWAIVQLLAYFETVIIIFTFAAILAFLLSYPVQWLRRFLPHSVAVVVVFLISIVILGGLLITVGVALLSQGQQLIDSISAFLTSLLPFLERIERLLSNRNLQIDLSVIQEQLRTQAVSTLVTSLAIVQQFLTNFVTFILIAVVAFFMLLDGEKLWNFILKIVPQKRRIRFTNIMRRSFLGFFRGQLLLCLFLTSSTFIIFLLLQVPFALILSVIVGILDIIPGIGATLGVGTITLIVLSQDVWLALKVLAACVVLQQIQDNLISPRIMQGSLNLNPVVVFFALLVGARVAGLLGVFISIPITGVIVSLFEIDEMKSEV | failed
MSGILALGAYVPERVMTNADFEAYLDTSDEWIVTRTGIKERRVAAEDEYTSDLAFKAVEDLLRRHPGALEGVDAVIVATNTPDALFPDTAALVQARFGLKAFAYDLLAGCPGWIYALAQAHALVEAGLAQKVLAVGAEALSKIIDWNDRATAVLFGDGGGAAVVGKVREGYGFRSFVLGADGTGAKELYHACVAPRLPDGTSMKNRLYMNGREVFKFAVRVMNTATLEAIEKAGLTPEDIRLFVPHQANLRIIDAARERLGLPWERVAVNVDRYGNTSTASIPLALKEALDAGRIREGDHVLLVSFGAGLTWAAAVLTWGGA | not failed
MSGLDPARSILQGSAEGPVIATGEALSFWGGVDPATGCVIDVHHPLHGVPLTGSILMMPSSRGSCTGSGVLLDLVLTGRGPAALVFSEPEDVLTLGALIASEMFGKPLPVL | failed
MSGMRVYLGADHAGYELKQRIIEHLKQTGHEPIDCGALRYDADDDYPAFCIAAATRTVADPGSLGIVLGGSGNGEQIAANKVPGARCALAWSVQTAALAREHNNAQLIGIGGRMHTVAEALAIVDAFVTTPWSKAQRHQRRIDILAEYERTHEAPPVPGAPA | not failed
